Measurements taken from paper PMC3541965.

Experiments:
[1] = molecular target: SRP(∆FL), SRP(C235) labeled with DACM or acrylodan (E. coli) (UniProt P0AGD7); assay: time course of acrylodan fluorescence
[2] = molecular target: RNC bearing the nascent chain of FtsQ (UniProt P06136); assay: fluorescence polarisation
[3] = molecular target: RNC bearing the nascent chain of firefly luciferase (firefly) [luciferase: P08659]; assay: fluorescence polarisation
[4] = molecular target: Cm-labeled RNC bearing the engineered signal sequence 1A9L; assay: FRET or BRET

Chain of RNC bearing the nascent chain of FtsQ (P06136 whole entry, looked up): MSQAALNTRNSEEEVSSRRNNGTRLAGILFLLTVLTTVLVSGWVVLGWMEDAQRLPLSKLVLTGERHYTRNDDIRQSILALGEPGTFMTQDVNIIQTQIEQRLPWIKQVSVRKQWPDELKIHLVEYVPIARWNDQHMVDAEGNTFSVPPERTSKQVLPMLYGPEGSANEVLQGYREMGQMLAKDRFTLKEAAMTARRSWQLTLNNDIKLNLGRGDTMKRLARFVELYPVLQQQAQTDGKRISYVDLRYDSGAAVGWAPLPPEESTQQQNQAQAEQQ
Chain of RNC bearing the nascent chain of firefly luciferase (firefly) [luciferase: P08659] (P08659 whole entry, looked up): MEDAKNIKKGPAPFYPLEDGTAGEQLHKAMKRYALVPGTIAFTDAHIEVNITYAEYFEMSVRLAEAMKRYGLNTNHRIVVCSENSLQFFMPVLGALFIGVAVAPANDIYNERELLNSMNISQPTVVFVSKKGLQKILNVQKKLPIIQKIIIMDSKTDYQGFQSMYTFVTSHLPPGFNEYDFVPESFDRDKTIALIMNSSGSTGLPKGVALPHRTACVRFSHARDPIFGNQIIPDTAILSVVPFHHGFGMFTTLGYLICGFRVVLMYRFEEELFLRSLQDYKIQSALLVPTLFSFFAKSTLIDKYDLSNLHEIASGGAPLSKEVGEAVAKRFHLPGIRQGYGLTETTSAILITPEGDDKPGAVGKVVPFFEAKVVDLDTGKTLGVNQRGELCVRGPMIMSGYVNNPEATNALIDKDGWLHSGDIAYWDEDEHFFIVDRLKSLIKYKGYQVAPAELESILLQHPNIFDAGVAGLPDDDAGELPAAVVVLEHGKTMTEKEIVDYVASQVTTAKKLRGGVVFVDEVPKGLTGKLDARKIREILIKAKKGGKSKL

Substance	fold change of Kd against wild-type SRP [2] [fold]	fold weaker Kd (koff/kon) against wild-type SRP [4] [fold]	other results
FtsY (from UniProt P10121 1-497) (receptor)			fold slower dissociation rate constant against wild-type SRP [1]: 80 fold
SRP(∆FL) with fluorescein-labeled Ffh(C421) (from UniProt P0AGD7 1-453) (complex)	< 3		
wild-type SRP with fluorescein-labeled Ffh(C421) (from UniProt P0AGD7 1-453) (complex)			Kd [2]: 1.7 nM; Kd [3]: 128 nM
SRP(LM→AA) with fluorescein-labeled Ffh(C421) (from UniProt P0AGD7 1-453) (complex)	< 3		
SRP(LM→AA) with BODIPY-FL labeled at residue 421 of Ffh (from UniProt P0AGD7 1-453) (complex)		6	
SRP(∆FL) with BODIPY-FL labeled at residue 421 of Ffh (from UniProt P0AGD7 1-453) (complex)		2	
